# Reference: US20250003951A1 (OXFORD UNIVERSITY INNOVATION, published 2025)
# T1: OX289-073 (human)
# T1 peptide: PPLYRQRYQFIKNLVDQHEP
# T2: OX289-074 (human)
# T2 peptide: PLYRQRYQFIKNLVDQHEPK
# T3: OX1149-190 (human)
# T3 peptide: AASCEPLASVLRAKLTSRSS
# T4: OX747-158 (human)
# T4 peptide: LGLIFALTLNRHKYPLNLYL
# T5: OX747-157 (human)
# T5 peptide: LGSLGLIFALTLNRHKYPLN
# T6: OX628-81 (human)
# T6 peptide: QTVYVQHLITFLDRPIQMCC
# T7: OX628-80 (human)
# T7 peptide: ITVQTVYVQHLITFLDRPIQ
# How the values were obtained:
# Assay in all cases: cell-based or functional assay
# OX289-073 = molecular target: T1, OX289-073
# OX289-074 = molecular target: T2, OX289-074
# OX1149-190 = molecular target: T3, OX1149-190
# OX747-158 = molecular target: T4, OX747-158
# OX747-157 = molecular target: T5, OX747-157
# OX628-81 = molecular target: T6, OX628-81
# OX628-80 = molecular target: T7, OX628-80
Binder,"Clone size (percent repertoire), IFNγ+ sorted T cells after peptide stimulation (OX1149-190)","Clone size (percent repertoire), IFNγ+ sorted T cells after peptide stimulation (OX747-158)","Clone size (percent repertoire), IFNγ+ sorted T cells after peptide stimulation (OX747-157)",further results
OX289 Peptides 73/74 clone 3 TCR (TCR) TCR alpha: AQSVTQLDSQVPVFEEAPVELRCNYSSSVSVYLFWYVQYPNQGLQLLLKYLSGSTLVKGINGFEAEFNKSQTSFHLRKPSVHISDTAEYFCAVSGTGANSKLTFGKGITLSVRPDIQNPDPAVYQLRD TCR beta 1: GAGVSQSPSNKVTEKGKDVELRCDPISGHTALYWYRQSLGQGLEFLIYFQGNSAPDKSGLPSDRFSAERTGGSVSTLTIQRTQQEDSAVYLCASSDPISGRGDEQFFGPGTRLTVLEDLKNVFPPEVAVFEPS TCR beta 2: GAGVSQSPSNKVTEKGKDVELRCDPISGHTALYWYRQSLGQGLEFLIYFQGNSAPDKSGLPSDRFSAERTGGSVSTLTIQRTQQEDSAVYLCASSFGGGAWNEQFFGPGTRLTVLEDLKNVFPPEVAVFEPS,–,–,–,"Clone size (percent repertoire), IFNγ+ sorted T cells after peptide stimulation (OX289-073): 8.67 % of repertoire; Clone size (percent repertoire), IFNγ+ sorted T cells after peptide stimulation (OX289-074): 8.67 % of repertoire"
"OX289 Peptides 73/74 clone 1 TCR (TCR, V domains shown) V domain 1: RGEDVEQSLFLSVREGDSSVINCTYTDSSSTYLYWYKQEPGAGLQLLTYIFSNMDMKQDQRLTVLLNKKDKHLSLRIADTQTGDSAIYFCAESPSDGQKLLFARGTMLKVDL V domain 2: EAQVTQNPRYLITVTGKKLTVTCSQNMNHEYMSWYRQDPGLGLRQIYYSMNVEVTDKGDVPEGYKVSRKEKRNFPLILESPSPNQTSLYFCASSLRQGISPEQFFGPGTRLTVLE",–,–,–,"Clone size (percent repertoire), IFNγ+ sorted T cells after peptide stimulation (OX289-073): 32.3 % of repertoire; Clone size (percent repertoire), IFNγ+ sorted T cells after peptide stimulation (OX289-074): 32.3 % of repertoire"
OX289 Peptides 73/74 clone 2 TCR (TCR) TCR alpha: ELKVEQNPLFLSMQEGKNYTIYCNYSTTSDRLYWYRQDPGKSLESLFVLLSNGAVKQEGRLMASLDTKARLSTLHITAAVHDLSATYFCAVEETSGSRLTFGEGTQLTVNPDIQNPDPAVYQLRD TCR beta 1: EAQVTQNPRYLITVTGKKLTVTCSQNMNHEYMSWYRQDPGLGLRQIYYSMNVEVTDKGDVPEGYKVSRKEKRNFPLILESPSPNQTSLYFCASSLRQGISPEQFFGPGTRLTVLEDLKNVFPPEVAVFEPS TCR beta 2: EAQVTQNPRYLITVTGKKLTVTCSQNMNHEYMSWYRQDPGLGLRQIYYSMNVEVTDKGDVPEGYKVSRKEKRNFPLILESPSPNQTSLYFCASSERQGITEAFFGQGTRLTVVEDLNKVFPPEVAVFEPS,–,–,–,"Clone size (percent repertoire), IFNγ+ sorted T cells after peptide stimulation (OX289-073): 25.6 % of repertoire; Clone size (percent repertoire), IFNγ+ sorted T cells after peptide stimulation (OX289-074): 25.6 % of repertoire"
"OX628 Peptides 80/81 clone 2 TCR (TCR, V domains shown) V domain 1: GQQLNQSPQSMFIQEGEDVSMNCTSSSIFNTWLWYKQDPGEGPVLLIALYKAGELTSNGRLTAQFGITRKDSFLNISASIPSDVGIYFCAGANNNARLMFGDGTQLVVKP V domain 2: SAVISQKPSRDICQRGTSLTIQCQVDSQVTMMFWYRQQPGQSLTLIATANQGSEATYESGFVIDKFPISRPNLTFSTLTVSNMSPEDSSIYLCSVTPGGGVNTEAFFGQGTRLTVVE",–,–,–,"Clone size (percent repertoire), IFNγ+ sorted T cells after peptide stimulation (OX628-81): 13.5 % of repertoire; Clone size (percent repertoire), IFNγ+ sorted T cells after peptide stimulation (OX628-80): 13.5 % of repertoire"
"OX628 Peptides 80/81 clone 3 TCR (TCR, V domains shown) V domain 1: QKEVEQNSGPLSVPEGAIASLNCTYSDRGSQSFFWYRQYSGKSPELIMSIYSNGDKEDGRFTAQLNKASQYVSLLIRDSQPSDSATYLCAVSAGGTSYGKLTFGQGTILTVHP V domain 2: DTAVSQTPKYLVTQMGNDKSIKCEQNLGHDTMYWYKQDSKKFLKIMFSYNNKELIINETVPNRFSPKSPDKAHLNLHINSLELGDSAVYFCASSQVLRGEQYFGPGTRLTVTE",–,–,–,"Clone size (percent repertoire), IFNγ+ sorted T cells after peptide stimulation (OX628-81): 4.2 % of repertoire; Clone size (percent repertoire), IFNγ+ sorted T cells after peptide stimulation (OX628-80): 4.2 % of repertoire"
OX747 Peptides 157/158 clone 1 TCR (TCR) TCR alpha 1: KNEVEQSPQNLTAQEGEFITINCSYSVGISALHWLQQHPGGGIVSLFMLSSGKKKHGRLIATINIQEKHSSLHITASHPRDSAVYICAVSTGGATNKLIFGTGTLLAVQPNIQNPDPAVYQLRD TCR alpha 2: KNEVEQSPQNLTAQEGEFITINCSYSVGISALHWLQQHPGGGIVSLFMLSSGKKKHGRLIATINIQEKHSSLHITASHPRDSAVYICAVQEGETSGSRLTFGEGTQLTVNPDIQNPDPAVYQLRD TCR beta: NAGVTQTPKFQVLKTGQSMTLQCAQDMNHEYMSWYRQDPGMGLRLIHYSVGAGITDQGEVPNGYNVSRSTTEDFPLRLLSAAPSQTSVYFCASSPGFNGNTIYFGEGSWLTVVEDLNKVFPPEVAVFEPS,–,15.5 % of repertoire,15.5 % of repertoire,–
"OX628 Peptides 80/81 clone 1 TCR (TCR, V domains shown) V domain 1: GQQLNQSPQSMFIQEGEDVSMNCTSSSIFNTWLWYKQEPGEGPVLLIALYKAGELTSNGRLTAQFGITRKDSFLNISASIPSDVGIYFCAGHQIQGAQKLVFGQGTRLTINP V domain 2: NAGVTQTPKFRILKIGQSMTLQCTQDMNHNYMYWYRQDPGMGLKLIYYSVGAGITDKGEVPNGYNVSRSTTEDFPLRLELAAPSQTSVYFCASSYSGMNTEAFFGQGTRLTVVE",–,–,–,"Clone size (percent repertoire), IFNγ+ sorted T cells after peptide stimulation (OX628-81): 55.1 % of repertoire; Clone size (percent repertoire), IFNγ+ sorted T cells after peptide stimulation (OX628-80): 55.1 % of repertoire"
"OX747 Peptides 157/158 clone 2 TCR (TCR, V domains shown) V domain 1: AQKVTQAQTEISVVEKEDVTLDCVYETRDTTYYLFWYKQPPSGELVFLIRRNSFDEQNEISGRYSWNFQKSTSSFNFTITASQVVDSAVYFCALSEATYNTDKLIFGTGTRLQVFP V domain 2: ETGVTQSPTHLIKTRGQQVTLRCSSQSGHNTVSWYQQALGQGPQFIFQYYREEENGRGNFPPRFSGLQFPNYSSELNVNALELDDSALYLCASSSTGTDYGYTFGSGTRLTVVE",–,9.8 % of repertoire,9.8 % of repertoire,–

# Further lines, with some results ahead:
"Clone size (percent repertoire), IFNγ+ sorted T cells after peptide stimulation (OX1149-190)","Clone size (percent repertoire), IFNγ+ sorted T cells after peptide stimulation (OX747-158)","Clone size (percent repertoire), IFNγ+ sorted T cells after peptide stimulation (OX747-157)",Binder,further results
18.3 % of repertoire,–,–,"OX1149 Peptide 190 clone 1 TCR (TCR, V domains shown) V domain 1: SQQGEEDPQALSIQEGENATMNCSYKTSINNLQWYRQNSGRGLVHLILIRSNEREKHSGRLRVTLDTSKKSSSLLITASRAADTASYFCATDEAAGNKLTFGGGTRVLVKP V domain 2: EPEVTQTPSHQVTQMGQEVILRCVPISNHLYFYWYRQILGQKVEFLVSFYNNEISEKSEIFDDQFSVERPDGSNFTLKIRSTKLEDSAMYFCASKRESLATGELFFGEGSRLTVLE",–
–,7.7 % of repertoire,7.7 % of repertoire,"OX747 Peptides 157/158 clone 5 TCR (TCR, V domains shown) V domain 1: GQQLNQSPQSMFIQEGEDVSMNCTSSSIFNTWLWYKQDPGEGPVLLIALYKAGELTSNGRLTAQFGITRKDSFLNISASIPSDVGIYFCAGQQKTSGSRLTFGEGTQLTVNP V domain 2: DGGITQSPKYLFRKEGQNVTLSCEQNLNHDAMYWYRQDPGQGLRLIYYSQIVNDFQKGDIAEGYSVSREKKESFPLTVTSAQKNPTAFYLCASSSPRDRVGQPQHFGDGTRLSILE",–
9 % of repertoire,–,–,"OX1149 Peptide 190 clone 3 TCR (TCR, V domains shown) V domain 1: GENVEQHPSTLSVQEGDSAVIKCTYSDSASNYFPWYKQELGKRPQLIIDIRSNVGEKKDQRIAVTLNKTAKHFSLHITETQPEDSAVYFCAARGGSNYKLTFGKGTLLTVNP V domain 2: DAGVIQSPRHEVTEMGQEVTLRCKPISGHDYLFWYRQTMMRGLELLIYFNNNVPIDDSGMPEDRFSAKMPNASFSTLKIQPSEPRDSAVYFCASSTGGEQYFGPGTRLTVTE",–
–,8.7 % of repertoire,8.7 % of repertoire,"OX747 Peptides 157/158 clone 3 TCR (TCR, V domains shown) V domain 1: QKEVEQNSGPLSVPEGAIASLNCTYSDRGSQSFFWYRQYSGKSPELIMFIYSNGDKEDGRFTAQLNKASQYVSLLIRDSQPSDSATYLCAGRQTSYDKVIFGPGTSLSVIP V domain 2: not shown",–
5.7 % of repertoire,–,–,"OX1149 Peptide 190 clone 4 TCR (TCR, V domains shown) V domain 1: SQQGEEDPQALSIQEGENATMNCSYKTSINNLQWYRQNSGRGLVHLILIRSNEREKHSGRLRVTLDTSKKSSSLLITASRAADTASYFCATKGGNNRLAFGKGNQVVVIP V domain 2: EPEVTQTPSHQVTQMGQEVILRCVPISNHLYFYWYRQILGQKVEFLVSFYNNEISEKSEIFDDQFSVERPDGSNFTLKIRSTKLEDSAMYFCASSAWTGETGYTFGSGTRLTVVE",–
–,7.9 % of repertoire,7.9 % of repertoire,"OX747 Peptides 157/158 clone 4 TCR (TCR, V domains shown) V domain 1: AQKVTQAQTEISVVEKEDVTLDCVYETRDTTYYLFWYKQPPSGELVFLIRRNSFDEQNEISGRYSWNFQKSTSSFNFTITASQVVDSAVYFCALSEMNRDDKIIFGKGTRLHILP V domain 2: NAGVMQNPRHLVRRRGQEARLRCSPMKGHSHVYWYRQLPEEGLKFMVYLQKENIIDESGMPKERFSAEFPKEGPSILRIQQVVRGDSAAYFCASSPTGVSGNTIYFGEGSWLTVVE",–
4.8 % of repertoire,–,–,"OX1149 Peptide 190 clone 5 TCR (TCR, V domains shown) V domain 1: DQQVKQNSPSLSVQEGRISILNCDYTNSMFDYFLWYKKYPAEGPTFLISISSIKDKNEDGRFTVFLNKSAKHLSLHIVPSQPGDSAVYFCAATRAGGTSYGKLTFGQGTILTVHP V domain 2: SQTIHQWPATLVQPVGSPLSLECTVEGTSNPNLYWYRQAAGRGLQLLFYSVGIGQISSEVPQNLSASRPQDRQFILSSKKLLLSDSGFYLCAWSVLAGVSQYFGPGTRLLVLE",–
17.3 % of repertoire,–,–,"OX1149 Peptide 190 clone 2 TCR (TCR, V domains shown) V domain 1: SQQGEEDPQALSIQEGENATMNCSYKTSINNLQWYRQNSGRGLVHLILIRSNEREKHSGRLRVTLDTSKKSSSLLITASRAADTASYFCAAMYSGGGADGLTFGKGTHLIIQP V domain 2: EPEVTQTPSHQVTQMGQEVILRCVPISNHLYFYWYRQILGQKVEFLVSFYNNEISEKSEIFDDQFSVERPDGSNFTLKIRSTKLEDSAMYFCASSTQGQAYEQYFGPGTRLTVTE",–
